{"source": "patent US20130136731", "tested_on": "N_EGF_TCS_SK"}
{"substance": "thrombin", "values": [{"measurement": "cleavage of the purified construct by thrombin (N-terminal protein sequencing)", "result": "The thrombin cleavage was indeed found to be true in case of the purified construct, after treatment with thrombin"}]}
